Source: publication PMC11721787 (Science translational medicine, 2023)

B1: ADI-42898 monovalent antibody-binding fragment (Fab) (Fab, V domains shown)
VH: QVQLVESGGGVVQPGRSLRLSCAASGFTFSSYAMHWVRQAPGKGLEWVAVTWFDVSKKDYADSVKGRFTISRDNSKNTLYLQMNSLRAEDTAVYYCARNLIRYSGSYFPVHGMDVWGQGTTVTVSS
VL: DIVMTQSPLSLPVTPGEPASISCRSSQSLLHTYGYNCLDWYLQRPGQSPQLLISLGSYRASGVPDRFSGSGSGTDFTLKISRVEAEDVGVYYCMQALHPFTFGGGTKVEIK
B2: ADI-42898 (monoclonal antibody, IgG) (antibody, V domains shown)
VH: B1 VH
VL: B1 VL
B3: ADI-42898 single-chain, variable domain fragment (scFv) (scFv, V domains shown)
VH: B1 VH
VL: B1 VL

Assays:
[1] = molecular target: PUUV Gn/Gc on virus-like particles (VLPs) (Puumala orthohantavirus, strain of the …, UniProt A0A0B4U5I0); test: ELISA
[2] = molecular target: PUUV Gn^H (head of Gn) (Puumala virus, UniProt P27312); test: crystal structure
[3] = molecular target: PUUV Gc ectodomain (Puumala virus, UniProt P27312); test: crystal structure
PUUV Gc ectodomain, sequence (P27312 659-1093): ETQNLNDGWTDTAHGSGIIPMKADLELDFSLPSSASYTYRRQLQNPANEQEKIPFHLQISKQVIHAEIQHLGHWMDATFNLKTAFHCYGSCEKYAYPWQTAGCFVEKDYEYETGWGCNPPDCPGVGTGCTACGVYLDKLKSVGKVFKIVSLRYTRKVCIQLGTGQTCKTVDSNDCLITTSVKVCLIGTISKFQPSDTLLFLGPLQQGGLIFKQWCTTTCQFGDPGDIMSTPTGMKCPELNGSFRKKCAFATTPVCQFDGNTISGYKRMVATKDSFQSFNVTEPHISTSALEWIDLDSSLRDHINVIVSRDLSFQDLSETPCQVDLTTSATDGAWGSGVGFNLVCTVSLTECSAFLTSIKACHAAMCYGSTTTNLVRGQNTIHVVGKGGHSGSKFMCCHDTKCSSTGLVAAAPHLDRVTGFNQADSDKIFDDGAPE

PUUV Gn^H (head of Gn), sequence (P27312 20-381): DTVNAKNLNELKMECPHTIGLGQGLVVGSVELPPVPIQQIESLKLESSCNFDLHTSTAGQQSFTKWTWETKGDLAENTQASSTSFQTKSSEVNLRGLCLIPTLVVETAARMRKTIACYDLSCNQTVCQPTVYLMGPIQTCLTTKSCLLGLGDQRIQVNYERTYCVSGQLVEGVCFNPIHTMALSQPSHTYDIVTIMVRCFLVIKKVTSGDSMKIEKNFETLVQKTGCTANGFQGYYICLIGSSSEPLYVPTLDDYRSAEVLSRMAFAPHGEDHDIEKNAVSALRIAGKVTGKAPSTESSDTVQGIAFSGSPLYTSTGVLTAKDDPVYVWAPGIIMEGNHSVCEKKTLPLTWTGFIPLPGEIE

Binder | binding result [1] | binding result [2] | binding result [3]
B1 | binds |  | 
B2 | binds |  | 
B3 |  | binds | binds
